Test results as given in patent publication EP4711384A1 (WIO Bioscience Co., Ltd., dated 2026).
Where “and” joins values, the source holds several entries; their conditions need not be identical. Identical values can stand only once.

T1: human IL-18R1 ECD-His (human) (UniProt Q13478)
T1 sequence: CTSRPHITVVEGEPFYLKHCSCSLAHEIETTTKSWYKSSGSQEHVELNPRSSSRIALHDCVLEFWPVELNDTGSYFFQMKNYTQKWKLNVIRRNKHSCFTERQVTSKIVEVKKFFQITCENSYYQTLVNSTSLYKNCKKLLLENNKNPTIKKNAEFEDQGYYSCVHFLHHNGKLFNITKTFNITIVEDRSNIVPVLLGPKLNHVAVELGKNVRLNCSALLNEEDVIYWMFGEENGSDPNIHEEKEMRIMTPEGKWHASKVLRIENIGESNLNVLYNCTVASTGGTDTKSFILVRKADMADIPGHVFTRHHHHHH

T2: human IL-18R1 and IL-18RAP on IL-18 Reporter HEK 293 Cells (human, UniProt Q13478 19-541; O95256 20-599)
T2 sequence (looked up) 1: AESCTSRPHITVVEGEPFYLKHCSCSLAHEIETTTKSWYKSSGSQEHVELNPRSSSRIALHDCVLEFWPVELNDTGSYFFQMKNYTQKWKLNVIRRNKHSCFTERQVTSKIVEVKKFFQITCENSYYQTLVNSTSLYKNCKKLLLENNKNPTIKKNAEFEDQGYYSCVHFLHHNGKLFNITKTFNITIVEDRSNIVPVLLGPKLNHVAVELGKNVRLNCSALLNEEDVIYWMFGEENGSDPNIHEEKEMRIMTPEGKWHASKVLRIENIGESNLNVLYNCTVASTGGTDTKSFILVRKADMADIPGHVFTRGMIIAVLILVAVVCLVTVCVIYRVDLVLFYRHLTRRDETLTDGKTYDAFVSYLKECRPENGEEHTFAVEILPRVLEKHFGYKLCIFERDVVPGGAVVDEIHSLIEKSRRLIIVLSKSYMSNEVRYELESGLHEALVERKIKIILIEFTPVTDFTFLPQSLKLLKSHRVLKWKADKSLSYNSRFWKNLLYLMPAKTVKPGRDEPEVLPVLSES
T2 sequence (looked up) 2: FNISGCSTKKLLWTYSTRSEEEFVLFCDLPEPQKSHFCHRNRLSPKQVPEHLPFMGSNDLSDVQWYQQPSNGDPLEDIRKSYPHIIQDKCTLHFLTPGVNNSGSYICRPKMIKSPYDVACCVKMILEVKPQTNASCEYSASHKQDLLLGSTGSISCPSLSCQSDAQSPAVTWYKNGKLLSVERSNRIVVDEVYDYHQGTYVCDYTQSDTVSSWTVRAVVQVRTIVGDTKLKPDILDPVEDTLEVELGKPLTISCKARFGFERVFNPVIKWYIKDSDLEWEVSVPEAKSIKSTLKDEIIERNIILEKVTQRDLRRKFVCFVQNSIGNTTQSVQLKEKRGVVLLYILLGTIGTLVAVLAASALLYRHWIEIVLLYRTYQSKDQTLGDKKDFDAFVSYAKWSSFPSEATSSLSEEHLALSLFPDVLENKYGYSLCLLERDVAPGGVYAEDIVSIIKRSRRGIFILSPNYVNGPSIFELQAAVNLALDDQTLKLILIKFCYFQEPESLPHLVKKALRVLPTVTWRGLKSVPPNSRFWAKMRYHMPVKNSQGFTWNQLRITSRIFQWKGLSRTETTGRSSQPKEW

B1: Wio-02-23 (R1-F9-GGGGS-Rap-C10) (bispecific antibody)
chain: QVQLQESGGGSVQAGETLRLSCTASGFTVHDMGWYRQAPGNECELVSTISSDGSTYYADSVKGRFTISQDNAKNTVYLQMNSLKPEDTAVYYCAADHFTGLQLAECKADFGYWGQGTQVTVSSGGGGSQVQLQESGGGSVQPGGSLRLSCAASGFTYIPAYMGWFRQAPGKERERVASISSTDGSTTYADSVKGRFTVSQDTAKNTLYLQMNSLKPEDTAMYYCAAYQFGAFRVWGQGTQVTVSS
B2: Wio-02-05 (R1-C7-GGGGS-Rap-C10) (bispecific antibody)
chain: QVQLQESGGGPVQAEGSLRLSCTASGNLYRDPCMGWFRQAPGKDREGVAAMNTGADSTFYARSVKGRFTISHDNAKNTLYLQMNSVKPEDTAMYYCAASRYCTERTWTWRYDYDYWGQGTQVTVSSGGGGSQVQLQESGGGSVQPGGSLRLSCAASGFTYIPAYMGWFRQAPGKERERVASISSTDGSTTYADSVKGRFTVSQDTAKNTLYLQMNSLKPEDTAMYYCAAYQFGAFRVWGQGTQVTVSS
B3: Wio-02-30 (Rap-C10-GGGGS-R1-C10) (bispecific antibody)
chain: QVQLQESGGGSVQPGGSLRLSCAASGFTYIPAYMGWFRQAPGKERERVASISSTDGSTTYADSVKGRFTVSQDTAKNTLYLQMNSLKPEDTAMYYCAAYQFGAFRVWGQGTQVTVSSGGGGSQVQLQESGGGSVQAGETLRLSCTASGSTFDEYDMGWYRQAPGNKCELVSTISTIDGSTYYADSVKGRFTISQDNTKNTVYLQMNSLKPEDTGVYYCEADDRGTWDRGGCWGQGTQVTVSS
B4: Wio-02-11 (R1-C10-GGGGS-Rap-C10) (bispecific antibody)
chain: QVQLQESGGGSVQAGETLRLSCTASGSTFDEYDMGWYRQAPGNKCELVSTISTIDGSTYYADSVKGRFTISQDNTKNTVYLQMNSLKPEDTGVYYCEADDRGTWDRGGCWGQGTQVTVSSGGGGSQVQLQESGGGSVQPGGSLRLSCAASGFTYIPAYMGWFRQAPGKERERVASISSTDGSTTYADSVKGRFTVSQDTAKNTLYLQMNSLKPEDTAMYYCAAYQFGAFRVWGQGTQVTVSS
B5: Wio-02-09 (R1-C10-GGGGS-Rap-F11) (bispecific antibody)
chain: QVQLQESGGGSVQAGETLRLSCTASGSTFDEYDMGWYRQAPGNKCELVSTISTIDGSTYYADSVKGRFTISQDNTKNTVYLQMNSLKPEDTGVYYCEADDRGTWDRGGCWGQGTQVTVSSGGGGSQVQLQESGGGSVQPGGSLRLSCAASGFTYIPAYMGWFRQAPGKERERVASIKTDGSTTYADSVNGRFTIAQDTAKNTLYLQMDSLKPEDTAMYYCAAYQFGAFRVWGQGTQVTVSS
B6: Wio-02-31 (Rap-C10-GGGGS-R1-F9) (bispecific antibody)
chain: QVQLQESGGGSVQPGGSLRLSCAASGFTYIPAYMGWFRQAPGKERERVASISSTDGSTTYADSVKGRFTVSQDTAKNTLYLQMNSLKPEDTAMYYCAAYQFGAFRVWGQGTQVTVSSGGGGSQVQLQESGGGSVQAGETLRLSCTASGFTVHDMGWYRQAPGNECELVSTISSDGSTYYADSVKGRFTISQDNAKNTVYLQMNSLKPEDTAVYYCAADHFTGLQLAECKADFGYWGQGTQVTVSS
B7: Wio-02-44 (Rap-A10-GGGGS-R1-E12) (bispecific antibody)
chain: QVQLQESGGGLVQAGGSLKLSCAASGYTYGPYCMGWFRQFPGKEREGVAAVGGDGRTWYGNSVKGRFTISQDNAKKTLYLQINALKPEDTAMYYCAADFDRTVCSDDIYDYTYRGQGTQVTVSSGGGGSQVQLQESGGGSVQAGGSLRLSCVASGTTMSMNYMAWFRQAPGKEREGVASIFRSTHYADSVKGRFTIAEDSAKNTVYLQMNSLKPEDTAVYYCAAGRTKPYLTPLAESQYNYWGQGIQVTVSS
B8: Wio-02-03 (R1-C7-GGGGS-Rap-F11) (bispecific antibody)
chain: QVQLQESGGGPVQAEGSLRLSCTASGNLYRDPCMGWFRQAPGKDREGVAAMNTGADSTFYARSVKGRFTISHDNAKNTLYLQMNSVKPEDTAMYYCAASRYCTERTWTWRYDYDYWGQGTQVTVSSGSQVQLQESGGGSVQPGGSLRLSCAASGFTYIPAYMGWFRQAPGKERERVASIKTDGSTTYADSVNGRFTIAQDTAKNTLYLQMDSLKPEDTAMYYCAAYQFGAFRVWGQGTQVTVSS
B9: Wio-02-29 (Rap-A10-GGGGS-R1-A12) (bispecific antibody)
chain: QVQLQESGGGLVQAGGSLKLSCAASGYTYGPYCMGWFRQFPGKEREGVAAVGGDGRTWYGNSVKGRFTISQDNAKKTLYLQINALKPEDTAMYYCAADFDRTVCSDDIYDYTYRGQGTQVTVSSGGGGSQVQLQESGGGPVQAGGSLRLSCSASTTAYDNACMGWFRQAPGKEREGVASIHLRDRTYYADSVKGRFTLSRDGASKTLYLQMNSLKPEDSGTYYCASSNICNGLNLQGNTYWGQGTQVTVSS
B10: hzWio-02-01-His (bispecific antibody)
chain: EVQLVESGGGLVQPGGSLRLSCAASGTAYDNACMGWFRQAPGKEREGVASIHLRDRTYYADSVKGRFTISRDNSKNTLYLQMNSLRAEDTAVYYCASSNICNALNLQGNTYWGQGTLVTVSSGGGGSEVQLLESGGGLVQPGGSLRLSCAASGYTYGPYCMGWFRQAPGKEREGVAAVGGDARTWYGNSVKGRFTISRDNSKNTLYLQMNSLRAEDTAVYYCAADFDRTVCSDDIYDYTYRGQGTLVTVSSHHHHHH
B11: R1-E12 (VHH)
VHH: QVQLQESGGGSVQAGGSLRLSCVASGTTMSMNYMAWFRQAPGKEREGVASIFRSTHYADSVKGRFTIAEDSAKNTVYLQMNSLKPEDTAVYYCAAGRTKPYLTPLAESQYNYWGQGIQVTVSS
B12: R1-C10 (VHH)
VHH: QVQLQESGGGSVQAGETLRLSCTASGSTFDEYDMGWYRQAPGNKCELVSTISTIDGSTYYADSVKGRFTISQDNTKNTVYLQMNSLKPEDTGVYYCEADDRGTWDRGGCWGQGTQVTVSS
B13: R1-F9 (VHH)
VHH: QVQLQESGGGSVQAGETLRLSCTASGFTVHDMGWYRQAPGNECELVSTISSDGSTYYADSVKGRFTISQDNAKNTVYLQMNSLKPEDTAVYYCAADHFTGLQLAECKADFGYWGQGTQVTVSS
B14: hzWio-02-44 (His form) (bispecific antibody)
chain: EVQLLESGGGLVQPGGSLRLSCAASGYTYGPYCMGWFRQAPGKEREGVAAVGGDARTWYGNSVKGRFTISRDNSKNTLYLQMNSLRAEDTAVYYCAADFDRTVCSDDIYDYTYRGQGTLVTVSSGGGGSQVQLQESGGGSVQAGGSLRLSCVASGTTMSMNYMAWFRQAPGKEREGVASIFRSTHYADSVKGRFTIAEDSAKNTVYLQMNSLKPEDTAVYYCAAGRTKPYLTPLAESQYNYWGQGIQVTVSSHHHHHH

Each binder was assayed against T1, human IL-18R1 ECD-His (human) (assay: sandwich ELISA, IL-18RAP ECD-hFc detection).

Binder	ELISA OD
B1	1.73 and 1.83
B2	1.88 and 1.9
B3	2.16 and 2.29
B4	2.03 and 2.15
B5	1.81 and 1.82
B6	2.17 and 2.18
B7	1.87 and 1.94
B8	1.74 and 1.85
B9	2.05 and 2.04

Each binder was assayed against T2, human IL-18R1 and IL-18RAP on IL-18 … (assay: cell-based or functional assay).

Binder	EC50 [ng/mL]	Top530nm
B10	2.3	1.05

What follows are binders tested against T1, human IL-18R1 ECD-His (human) (assay: phage ELISA, 4-fold dilution).

Binder	ELISA OD
B11	2.76
B12	1.33
B13	2.04

The binders below were run against T1, human IL-18R1 ECD-His (human) (assay: phage ELISA, 16-fold dilution).

Binder	ELISA OD
B11	2.71
B12	0.977
B13	1.63

Target: T2, human IL-18R1 and IL-18RAP on IL-18 …
Experiment: cell-based or functional assay
Remark: another data set of the same source

Binder	EC50 [ng/mL]	Top630nm
B14	2.66	0.912
B10	0.417	1.93

Target: T2, human IL-18R1 and IL-18RAP on IL-18 …
Experiment: cell-based or functional assay
Remark: another data set of the same source

Binder	SEAP reporter OD, supernatant 5X	SEAP reporter OD, supernatant 25X
B1	1.78	1.9
B2	1.97	1.86
B3	1.59	1.18
B4	2.85	2.17
B5	1.91	1.87
B6	1.66	1.77
B7	1.31	1.37
B8	1.39	0.608
B9	1.51	1.23
